Measured values taken from article PMC3353419 (2013).

Target: T1, Haptoglobin (Homo sapiens, UniProt P00738)
T1 chain: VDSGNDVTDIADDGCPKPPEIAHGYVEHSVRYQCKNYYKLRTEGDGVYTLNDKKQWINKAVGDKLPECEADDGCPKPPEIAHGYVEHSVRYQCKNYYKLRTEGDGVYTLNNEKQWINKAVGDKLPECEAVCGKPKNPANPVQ
Assay: SPR

Kd: 0.823 nM
B1: Hemoglobin (protein)
chain 1: not shown
chain 2: not shown
modifications: dextran (10 kDa)-linker at beta Cys93
